Measured values published in article PMC6582352.

Target: CbAgo (Clostridium butyricum, UniProt P0DYD1 1-748)
Test: single-molecule TIRM, immobilized CbAgo

B1: siDNA 12 nt (SM013) (ssDNA)
DNA: CCATCTGTCTTA
modifications: 5'-phosphate
Q: Does B1 bind?
A: binds
